{
  "source": "paper PMC6817822",
  "biological_target": "PR55α regulatory subunit of PP2A (human (endogenous in CD18/HPAF)) (UniProt P63151)",
  "sequence (P63151 whole entry)": "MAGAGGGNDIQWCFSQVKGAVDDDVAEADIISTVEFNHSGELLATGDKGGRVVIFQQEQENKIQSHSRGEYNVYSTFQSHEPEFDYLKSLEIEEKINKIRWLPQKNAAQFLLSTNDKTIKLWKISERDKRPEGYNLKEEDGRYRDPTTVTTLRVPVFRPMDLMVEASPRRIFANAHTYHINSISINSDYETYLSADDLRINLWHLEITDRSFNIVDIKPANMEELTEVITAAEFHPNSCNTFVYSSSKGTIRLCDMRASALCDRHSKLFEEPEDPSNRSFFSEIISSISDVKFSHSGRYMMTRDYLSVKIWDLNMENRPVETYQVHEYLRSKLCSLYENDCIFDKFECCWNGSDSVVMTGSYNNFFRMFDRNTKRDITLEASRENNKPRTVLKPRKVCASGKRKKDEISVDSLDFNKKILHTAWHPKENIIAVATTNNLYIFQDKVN",
  "experiment": "co-IP; PR55α immunoprecipitated with anti-PR55α (2G9) from CD18/HPAF cells stably transduced with empty vector, Flag-YAP or Flag-YAP(5SA); immunoblotted with anti-PR55α (100C1) and anti-Flag (M2)",
  "data": [
    {"substance": "Flag-YAP(WT) (natural protein)", "values": [
      {"measurement": "fold of the level in the anti-PR55α immunoprecipitates against Flag-YAP(5SA)", "result": 28, "unit": "fold"}
    ]}
  ]
}
